Results taken from paper PMC3501500, “Conformational Selection Underlies Recognition of a Molybdoenzyme by Its Dedicated Chaperone” (PLoS ONE, 2012).

Experiments:
NarG(1–15) peptide = target: T1, NarG(1–15) peptide (Escherichia coli, UniProt P09152); conditions: 2 µM NarJT, 50 mM Tris-HCl pH 7.5, 1 mM MgCl2, 296 K; peptide stock 50 µM
T1 sequence (P09152 whole entry, looked up): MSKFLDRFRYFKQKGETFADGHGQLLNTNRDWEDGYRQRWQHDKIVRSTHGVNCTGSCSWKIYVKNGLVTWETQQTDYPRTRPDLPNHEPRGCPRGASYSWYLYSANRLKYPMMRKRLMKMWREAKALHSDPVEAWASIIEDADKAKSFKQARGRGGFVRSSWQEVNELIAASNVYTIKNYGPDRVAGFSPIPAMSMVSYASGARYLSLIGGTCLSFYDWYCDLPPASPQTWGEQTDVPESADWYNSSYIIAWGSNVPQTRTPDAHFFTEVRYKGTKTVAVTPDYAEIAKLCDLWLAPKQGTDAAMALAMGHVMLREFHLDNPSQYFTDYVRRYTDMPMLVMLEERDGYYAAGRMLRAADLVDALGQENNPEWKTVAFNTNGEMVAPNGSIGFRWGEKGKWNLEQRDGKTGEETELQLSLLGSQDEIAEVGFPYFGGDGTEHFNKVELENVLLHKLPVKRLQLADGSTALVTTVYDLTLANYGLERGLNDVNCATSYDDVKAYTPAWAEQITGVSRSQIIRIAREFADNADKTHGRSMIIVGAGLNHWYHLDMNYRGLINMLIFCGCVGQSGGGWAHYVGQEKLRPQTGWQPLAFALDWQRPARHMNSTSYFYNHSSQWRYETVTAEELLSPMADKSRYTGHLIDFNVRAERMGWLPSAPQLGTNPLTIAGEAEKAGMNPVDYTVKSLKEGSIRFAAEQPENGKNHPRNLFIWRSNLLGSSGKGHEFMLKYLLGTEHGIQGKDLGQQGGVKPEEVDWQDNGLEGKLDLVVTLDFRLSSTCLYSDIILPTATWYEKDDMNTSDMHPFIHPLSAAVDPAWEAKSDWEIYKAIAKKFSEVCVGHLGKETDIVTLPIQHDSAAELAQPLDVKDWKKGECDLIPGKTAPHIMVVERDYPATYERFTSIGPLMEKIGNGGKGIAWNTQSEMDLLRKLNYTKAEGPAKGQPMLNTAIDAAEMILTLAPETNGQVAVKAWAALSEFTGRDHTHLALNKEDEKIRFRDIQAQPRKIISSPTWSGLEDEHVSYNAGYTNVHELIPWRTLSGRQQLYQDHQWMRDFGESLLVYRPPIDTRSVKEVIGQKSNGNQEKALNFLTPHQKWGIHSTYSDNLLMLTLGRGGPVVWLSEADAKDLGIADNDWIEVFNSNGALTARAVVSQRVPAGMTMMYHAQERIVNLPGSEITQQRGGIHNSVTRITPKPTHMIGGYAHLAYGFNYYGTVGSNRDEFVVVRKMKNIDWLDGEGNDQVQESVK
Description: Tryptophan fluorescence spectroscopy
Increasing concentrations of NarG(1–15) peptide at 50 µM (initial concentration) were then added and the emission fluorescence was scanned. Excitation was at 285 nm and emission was recorded from 310 to 410 nm with excitation and emission band-passes at 2 nm. […] Dissociation constants were calculated by plotting relative fluorescence peak integration against ligand concentration and curve-fitting using Origin software.
Indicated values are the average of at least three independent measurements.

NarJ = conditions: NMR; isolated NarG(1–15) peptide vs NarJ-bound; ref [18]; cited from earlier work

## NarG(1–15) peptide: N-terminal NarG peptide, first 15 residues, chemically synthesized and purified by Synprosis (MSKFLDRFRYFKQKG; UniProt P09152 1-15, looked up, fragment)
NarG(1–15) peptide
  maximal decrease of the tryptophan fluorescence of NarJT upon peptide addition: 30%
NarJ
  structure of peptide upon NarJ binding (in words): remains unchanged upon NarJ binding
